Measurements reported in US20030032587A1, “Urocortin peptides” (The Salk Institute for Biological Studies, priority 1995, published 2003).
Where no end group is shown, it is not given here.

Assays:
[1] = target: human CRF-R2β, stably transfected CHO cells (human) (UniProt Q13324); experiment: competitive displacement of [125I-Tyr0]Ucn from stably transfected CHO cells expressing human CRF-R2β; 95% confidence limits in brackets
[2] = target: T1, human CRF-R1 (cloned hCRF-R1), stably expressed in CHO cells (human, UniProt P34998 24-415); experiment: competitive displacement of 125I-(Nle21,Tyr32) ovine CRF from CHO cells stably expressing hCRF-R1; LIGAND program, 95% confidence limits in brackets
T1 construct: whole, on cells; also called hCRF-RA
T1 sequence (looked up): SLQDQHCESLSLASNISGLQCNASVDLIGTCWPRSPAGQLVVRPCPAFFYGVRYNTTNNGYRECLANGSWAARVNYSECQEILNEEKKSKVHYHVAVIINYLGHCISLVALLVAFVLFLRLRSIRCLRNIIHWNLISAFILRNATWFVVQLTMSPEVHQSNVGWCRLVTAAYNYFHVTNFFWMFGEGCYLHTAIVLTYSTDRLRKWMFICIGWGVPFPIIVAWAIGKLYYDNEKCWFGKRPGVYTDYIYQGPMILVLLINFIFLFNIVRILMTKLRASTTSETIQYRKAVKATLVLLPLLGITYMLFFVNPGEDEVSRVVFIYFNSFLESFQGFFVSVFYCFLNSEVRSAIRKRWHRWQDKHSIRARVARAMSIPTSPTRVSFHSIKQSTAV
Procedure: Binding assays with cells expressing human CRF-R1 are carried out as described in the Chen et al. P.N.A.S., supra.

[3] = target: T2, human CRF binding protein (human, UniProt P24387 25-322); experiment: competitive hCRF-BP ligand binding assay with 125I[Nle21,Tyr32]-oCRF
T2 construct: also called hCRF-BP; CRF-BP
T2 sequence (looked up): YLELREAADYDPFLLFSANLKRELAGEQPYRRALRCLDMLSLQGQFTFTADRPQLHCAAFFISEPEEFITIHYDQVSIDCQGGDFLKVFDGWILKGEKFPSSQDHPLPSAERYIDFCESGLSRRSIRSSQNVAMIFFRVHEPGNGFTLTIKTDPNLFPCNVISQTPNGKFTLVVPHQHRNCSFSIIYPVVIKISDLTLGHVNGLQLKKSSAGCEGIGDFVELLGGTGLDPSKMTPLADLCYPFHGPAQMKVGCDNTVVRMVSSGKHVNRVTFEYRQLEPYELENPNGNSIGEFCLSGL

Ki [1]: 3 nM
Ki [2]: ~0.43 nM
binding result [3]: binds
Binder: NDDPPISIDLTFHLLRNMIEMARIENEREQAGLNRKYLDEV-NH2 (also called sfUI; suckerfishUI) [suckerfish urotensin I]
